Laboratory results: the supplement of paper PMC9170038

Test system: MS2 coat protein
Experiment: apparent KD of MS2 coat protein; higher = weaker reporter binding
Details: Eterna round: R107
Summary of the method: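 Illumina sequencing clusters served as templates for on-chip transcription of the designed RNA switches. SNAP-549-labelled MS2 coat protein was then titrated in twofold steps from 0.7 or 1.5 nM to 3 µM, allowing 0.8–1.5 h per step at first and 10–20 min per step later. The buffer held 100 mM Tris-HCl pH 7.5, 80 mM KCl and 4 mM MgCl2, without or with constant ligand. Apparent KD is the median per design of normalised cluster binding-curve fits.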

[1] = input ligand: theophylline 20 uM
[2] = input ligand: theophylline 2 mM
[3] = input ligand: tryptophan 2.4 mM

Sequence | apparent KD of MS2 coat protein (input ligand: arginine 13.2 mM) [µM] | apparent KD of MS2 coat protein (input ligand: none) [µM] | apparent KD of MS2 coat protein [1] [µM] | apparent KD of MS2 coat protein [2] [µM] | apparent KD of MS2 coat protein [3] [µM]
UUCUUUAAGUCGGCCGCCACUGAAACAUGAGGAUCACCCAUGUAUAUUUGGGUAUAGGUGGAUUACAGGACCGGGACUAUAGUAA [JR_ExcTryptoB_Sub022] | 0.0312 | 0.0661 | 0.0723 | 0.104 | 0.0796
AACAACAAGGGAAGGAGCGCGAAUUAUAGACAUGAGGAUCACCCAUGUAACAUGGGAUUAACGCAGGUAGGUCGCCCACAAACAA [#08 Exclusion - Arginine B] | 0.0805 | 0.162 | 0.237 | 0.177 | 0.117
AUCAUAAUAGACUCGUUUGAUUAUAUGGAACGAGGACCGGUACGGCCGCCACUCGUGAUUUACAUGAGGAUCACCCAUGUUAGCA [JR_ExcTryptoA_Sub005] | 0.017 | – | 0.0235 | 0.0194 | –
AAACUGGGUGUAAAAUAAAUAAUCACUGAUACCAGACUAUGAGAUGUCCCUUGGCAGCAGAAACAUGAGGAUCACCCAUGUAAUA [JR_Nu_ExcTheophyA_Sub026] | 0.0196 | – | 0.0245 | – | 0.0252
UUAUUUAACGGAAGGAGCGCGGAUAAUAAAGUGGGUAAACAUGAGGAUCACCCAUGUAAACCGCAGGUAGGUCGCCGAUAUUUAU [AstrosEXyARgB#6] | 0.0439 | 0.0565 | 0.0776 | 0.0729 | 0.0426
AUGUCGUUGAAUAUAGCGGCUUGGAGUGAUACCAGUAUGAUCCAAUACCCUUGGCAGCAUAACAUGAGGAUCACCCAUGUUCCAG [SSTheo A #25] | 0.0195 | – | 0.0437 | – | 0.0186
UUUACAUGAGGAUCACCCAUGUGCCAUGAUACCAGACAUGAAAAUGUCCCUUGGCAGCAUGAAGGUACCUCAUCGGGAAACCGAA [Malomerice] | 0.0285 | – | 0.0957 | – | 0.053
AGCCUCAUACAUGAGGAUCACCCAUGUGAUACCAGUCAGGAAACUGACCCUUGGCAGCGCAUGAGGAUCACCCAUGCGCGAGGCA [Omei Theo A Exc A v1] | 0.0401 | – | 0.123 | – | 0.0368
GUCCUCGACACGGCCGCCACUGGCUCGCCUGUUGGCGCCGACCCACAUGAGGAUCACCCAUGUUCCAGGACCGGGUGUCACAGCA [theeternabot_sameState_MS2_Trp_B_42] | 0.0646 | – | 0.312 | 0.311 | –
GACUCUGUCGGAAGGAGCGCAGAGCCGGUCUUCUACAUGAGGAUCACCCAUGUGCUGGUUAUGCAGGUAGGUCGCCGACGCGUGG [Ismatiza] | 0.017 | 0.0271 | 0.0402 | 0.0272 | 0.0246
CGAACAAAACUAAAUAAACAACUGGGUGAUACCAGUACAUGUGCGUACCCUUGGCAGCAUCCGGCCACAUGAGGAUCACCCAUGU [Ridiansoer] | 0.0354 | – | 0.0988 | – | 0.0409
GAUGAACUAUGUGAUACCAGACAACAUGAGGAUCACCCAUGUGCGCGUCGUCCUCUGCCUGUCCCUUGGCAGCGUAUAGUUUAUC [XTheo B #13] | 0.0779 | – | 0.11 | – | 0.0478
AGACAUGAGGAUCACCCAUGUAGUACGGAUACCAGAUCCAGAUUUAUCCCUUGGCAGCUGUGGUACAGCGUUGCAACGCUCCUAG [Exclusion - Theophylline A (Freestyle 15)] | 0.0136 | – | 0.0221 | – | 0.0154
UGUAUGGACUGAAGGAGCGGGUAAUAAAUCUGAGGAUCACCCAGGUAAUAGGCGAAAGCCACCCAGGUAGGUCGCAGUCCAUACU | 0.0177 | 0.019 | 0.0251 | 0.0193 | 0.0194
CACGGAUGAGUGGAUCACCCUCGUAAUAACCGAGGACCGGUACGGCCGCCACUCGAAAACCGUGACCUGUACGAAAAGUGCAGGA | 0.0567 | 0.0365 | 0.399 | 1.5 | 0.0398
AUGUAUGUCAGAAGGAGCGUCUUUAACAUGAGGAUCACCCAUGUAACAUUGAAUUCGAUGAGACAGGUAGGUCGCUGAAUAGUAA [SS-ArgB25] | 0.0297 | 0.035 | 0.066 | 0.0188 | 0.0219
AUGCACAUCAGAAGGAGCGUCUUGGCCAAUCUAGGCCAACAUGAGGAUCACCCAUGUGCAGGACAGGUAGGUCGCUGAUGUGUAG [Arg B SS t8] | 0.0116 | 0.0123 | 0.0178 | 0.0145 | 0.0124
ACAUGAAGAACAGCGGUGGGCGCGCUCGAUACCAGUACUUUGAUAUACCCUUGGCAGCGACAUGAGGAUCACCCAUGUGAGAUGA [XTheo A #2] | 0.016 | – | 0.0239 | – | 0.0181
AACACGGUGAUGGUAGCCGGACGCUAGGUACGAGGACCGGUACGGCCGCCACUCGAAGUCCUACGACAUGAGGAUCACCCAUGUA [Same State Trp A GF14] | 0.0462 | 0.0643 | 0.0892 | 0.0817 | 0.0477
